Source: paper PMC5750214
Positions count from the first letter of the chain named. In names and notes the source's numbering stands.

B1: AT1-YFP (wild type), P30556 R167N (protein)
chain: MILNSSTEDGIKRIQDDCPKAGRHNYIFVMIPTLYSIIFVVGIFGNSLVVIVIYFYMKLKTVASVFLLNLALADLCFLLTLPLWAVYTAMEYRWPFGNYLCKIASASVSFNLYASVFLLTCLSIDRYLAIVHPMKSRLRRTMLVAKVTCIIIWLLAGLASLPAIIHNNVFFIENTNITVCAFHYESQNSTLPIGLGLTKNILGFLFPFLIILTSYTLIWKALKKAYEIQKNKPRNDDIFKIIMAIVLFFFFSWIPHQIFTFLDVLIQLGIIRDCRIADIVDTAMPITICIAYFNNCLNPLFYGFLGKKFKRYFLQLLKYIPPKAKSHSNLSTKMSTLSYRPSDNVSSSTKKPAPCFEVE
B2: AT1-YFP (wild type), P30556 R167K (protein)
chain: B1 chain with N167K
B3: AT1-YFP (wild type), P30556 C289S (protein)
chain: B1 chain with N167R, C289S
B4: human angiotensin II type 1 (AT1) receptor, P30556 C289S (protein)
chain: B1 chain with N167R, C289S
B5: human angiotensin II type 1 (AT1) receptor, P30556 R167A (protein)
chain: B1 chain with N167A
B6: AT1-YFP (wild type), P30556 R167A (protein)
chain: B1 chain with N167A

Experiments:
[1] = biological target: β-arrestin-2-RLuc, P32121; experiment: BRET; settings: chain shown with the change, HEK293A cells, read off a plot
[2] = biological target: β-arrestin-2-RLuc, P32121; experiment: BRET; settings: chain shown with the change, HEK293A cells, read off a plot; remark: listed apart in the source
[3] = biological target: β-arrestin-2-RLuc, P32121; experiment: BRET; settings: chain shown with the change, HEK293A cells, read off a plot; remark: listed apart in the source
[4] = biological target: [125I]-Angiotensin II; experiment: competitive radioligand binding assay; settings: chain shown with the change, value read from the curve at the x tick, read off a plot
[5] = Ang II (1 μM), parent: est. 0.672
[6] = CTL (no stimulation), parent: est. 0.624
[7] = Hcy (100 μM), parent: est. 0.632
[8] = no stimulation (open bar, labelled WT in the key), parent: est. 0.624

β-arrestin-2-RLuc, P32121, sequence (P32121 whole entry): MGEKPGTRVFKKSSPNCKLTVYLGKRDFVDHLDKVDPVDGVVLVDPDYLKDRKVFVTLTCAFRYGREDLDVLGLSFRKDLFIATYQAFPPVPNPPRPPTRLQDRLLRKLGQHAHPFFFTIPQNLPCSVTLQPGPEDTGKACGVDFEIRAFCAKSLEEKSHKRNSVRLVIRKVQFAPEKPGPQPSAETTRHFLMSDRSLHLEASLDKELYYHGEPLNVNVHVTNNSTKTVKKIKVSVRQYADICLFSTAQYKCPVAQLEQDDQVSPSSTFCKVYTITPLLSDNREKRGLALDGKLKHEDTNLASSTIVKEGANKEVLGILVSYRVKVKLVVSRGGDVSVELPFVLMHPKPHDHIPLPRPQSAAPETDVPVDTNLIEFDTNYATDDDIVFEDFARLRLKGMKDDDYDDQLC

Binder	response [1, 5]	response [1, 6]	response [2, 6]	response [2, 7]	other results
B1	0.657 Δ net BRET	0.621 Δ net BRET	0.621 Δ net BRET	0.62 Δ net BRET	–
B2	0.621 Δ net BRET	0.618 Δ net BRET	0.619 Δ net BRET	0.618 Δ net BRET	–
B3	–	–	–	–	response [2, 5]: 0.69 Δ net BRET; response [2, 8]: 0.624 Δ net BRET; response [3, 7]: 0.623 Δ net BRET; response [3, 8]: 0.623 Δ net BRET
B4	–	–	–	–	response (% specific binding) ([4]; competing Hcy at log [Hcy] (M) = -2, parent: est. 33): 31; response (% specific binding) ([4]; competing Hcy at log [Hcy] (M) = -4, parent: est. 46): 76; response (% specific binding) ([4]; competing Hcy at log [Hcy] (M) = -6, parent: est. 97): 100
B5	–	–	–	–	response (% specific binding) ([4]; competing Hcy at log [Hcy] (M) = -2, parent: est. 34): 34; response (% specific binding) ([4]; competing Hcy at log [Hcy] (M) = -4, parent: est. 45): 66; response (% specific binding) ([4]; competing Hcy at log [Hcy] (M) = -6, parent: est. 98): 100
B6	0.628 Δ net BRET	0.629 Δ net BRET	0.626 Δ net BRET	0.622 Δ net BRET	–
